For 11 molecules, Kd results are on record in US20210269480A1 (published 2021).

The chains are these.
T1: Human Nectin-4 (residues Gly32-Ser349) with C-terminal FLAG tag, biotinylated (human, UniProt Q96NY8 32-349, randomly biotinylated with EZ-Link Sulfo-NHS-LC-LC-Biotin)
T1 construct: range 32-349; Captured through biotin on a streptavidin CM5 chip in the SPR assay; also called PVRL4; not shown: C-terminal FLAG tag
T1 sequence (looked up): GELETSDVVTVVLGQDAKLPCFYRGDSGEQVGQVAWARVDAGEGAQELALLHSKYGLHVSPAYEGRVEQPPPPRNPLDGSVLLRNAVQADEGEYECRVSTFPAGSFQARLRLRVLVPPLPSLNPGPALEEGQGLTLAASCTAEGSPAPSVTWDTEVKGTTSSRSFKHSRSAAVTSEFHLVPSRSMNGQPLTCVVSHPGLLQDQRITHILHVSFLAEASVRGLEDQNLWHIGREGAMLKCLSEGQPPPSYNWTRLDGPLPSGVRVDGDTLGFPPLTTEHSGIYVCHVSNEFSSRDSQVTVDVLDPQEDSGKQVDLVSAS

B1: BCY7825 (peptide)
peptide: {MMAE-PABC′-Cit-Val-Glutaryl-βAla}-[Sar][Sar][Sar][Sar][Sar][Sar][Sar][Sar][Sar][Sar]CPF[dD]CM[hArg]NWSTPIWC
modifications: linker 11-15-25 via TATA
notes: also called MMAE-PABC-Cit-Val-Glutaryl-BCY7814
B2: BCY8245 (peptide)
peptide: {MMAE-PABC-Cit-Val-Glutaryl-βAla}-[Sar][Sar][Sar][Sar][Sar][Sar][Sar][Sar][Sar][Sar]CP[1Nal][dD]CM[hArg]DWSTP[Hyp]WC
modifications: linker 11-15-25 via TATA
notes: also called BT8009; MMAE-PABC-Cit-Val-Glutaryl-BCY8234
B3: BCY8253 (peptide)
peptide: {MMAE-PABC′-Cit-Val-Glutaryl-βAla}-[Sar][Sar][Sar][Sar][Sar][Sar][Sar][Sar][Sar][Sar]CP[1Nal][dR]CL[hArg]HWSTP[Hyp]WC
modifications: linker 11-15-25 via TATA
notes: also called MMAE-PABC-Cit-Val-Glutaryl-BCY8231
B4: BCY8254 (peptide)
peptide: {MMAE-PABC′-Cit-Val-Glutaryl-βAla}-[Sar][Sar][Sar][Sar][Sar][Sar][Sar][Sar][Sar][Sar]CP[1Nal][dR]CM[hArg]NWSTP[Hyp]WC
modifications: linker 11-15-25 via TATA
notes: also called MMAE-PABC-Cit-Val-Glutaryl-BCY8232
B5: BCY8255 (peptide)
peptide: {MMAE-PABC′-Cit-Val-Glutaryl-βAla}-[Sar][Sar][Sar][Sar][Sar][Sar][Sar][Sar][Sar][Sar]CP[1Nal][dR]CM[hArg]DWSTP[Hyp]WC
modifications: linker 11-15-25 via TATA
notes: also called MMAE-PABC-Cit-Val-Glutaryl-BCY8235
B6: BCY7683 (peptide)
peptide: {MMAE-PABC-Cit-Val-Glutaryl-βAla}-[Sar][Sar][Sar][Sar][Sar]CPF[dD]CM[hArg]NWSWPIWC
modifications: linker 6-10-20 via TATA
notes: also called MMAE-PABC-Cit-Val-Glutaryl-BCY7556
B7: BCY8783 (peptide)
peptide: {MMAE-PABC′-Cit-Val-Glutaryl-βAla}-[Sar][Sar][Sar][Sar][Sar][Sar][Sar][Sar][Sar][Sar]CP[1Nal][dCya]CM[hArg]DWSTP[Hyp]WC
modifications: linker 11-15-25 via TATA
notes: also called MMAE-PABC-Cit-Val-Glutaryl-BCY8269
B8: BCY8280 (peptide)
peptide: {Ac-βAla}-[Sar][Sar][Sar][Sar][Sar][Sar][Sar][Sar][Sar][Sar]CP[1Nal][dCya]CM[hArg][Cya]WSTP[Hyp]WC
modifications: linker 11-15-25 via TATA (inferred)
B9: BCY8278 (peptide)
peptide: {Ac-βAla}-[Sar][Sar][Sar][Sar][Sar][Sar][Sar][Sar][Sar][Sar]CP[1Nal][dD]CM[hArg][Cya]WSTP[Hyp]WC
modifications: linker 11-15-25 via TATA (inferred)
B10: BCY8784 (peptide)
peptide: {MMAE-PABC′-Cit-Val-Glutaryl-βAla}-[Sar][Sar][Sar][Sar][Sar][Sar][Sar][Sar][Sar][Sar]CP[1Nal][dCya]CM[hArg][Cya]WSTP[Hyp]WC
modifications: linker 11-15-25 via TATA (inferred)
B11: BCY8281 (peptide)
peptide: {Ac-βAla}-[Sar][Sar][Sar][Sar][Sar][Sar][Sar][Sar][Sar][Sar]CP[1Nal][dD]CM[Cya][Cya]WSTP[Hyp]WC
modifications: linker 11-15-25 via TATA (inferred)

*1 amine or outer side, *2 acyl side, *3 side chain or, on linkers, in order; H or OH if unused. Bridges are numbered along the chain shown (N, C = ends). Primed or numbered codes have the meaning given here. Where no end group is shown, it is not given here. [ ]: non-standard residue; d: D form. TATA = O=C(CC[*:1])N1CN(C(=O)CC[*:2])CN(C(=O)CC[*:3])C1; 1Nal = N[C@@H](Cc1cccc2ccccc12)C(=O)O; PABC = O=C(OCc1ccc(N[*:1])cc1)[*:2]; Glutaryl = O=C(CCCC(=O)[*:2])[*:1]; Cya = N[C@@H](CS(=O)(=O)O)C(=O)O; Hyp = O=C(O)[C@@H]1C[C@@H](O)CN1; dCya = N[C@H](CS(=O)(=O)O)C(=O)O; hArg = N=C(N)NCCCC[C@H](N)C(=O)O; Cit = NC(=O)NCCC[C@H](N)C(=O)O; MMAE = monomethyl auristatin E; PABC′ = p-aminobenzylcarbamate; βAla = NCCC(=O)O; Sar = CNCC(=O)O

One test concerns the target T1, Human Nectin-4 (residues Gly32-Ser349) …. Nature of the test: SPR (Biacore), biotinylated human Nectin-4 on streptavidin chip. A general note: In SPR one partner is held on a chip, and binding of the other changes the refractive index at the surface.
B1 showed a Kd of 11.6 nM.

B2 had a Kd of 5.12 nM.

B3 registered a Kd of 6.22 nM.

As to B4, binding was put at a Kd of 4.11 nM.

In turn, B5 displayed a Kd of 8.58 nM.

B6 showed a Kd of 27.1 nM.

With B7, the equilibrium dissociation constant (Kd) was 0.804 nM.

For another test, the target named is Human Nectin-4 (residues Gly32-Ser349) with C-terminal FLAG tag, biotinylated (human) (UniProt Q96NY8). Described as above.
B8 displayed a Kd of 2 nM. In other words, the single-digit nanomolar range.

In turn, B9 gave a dissociation constant Kd of 1.92 nM.

Take B10: the Kd stood at 0.662 nM.

In turn, B11 registered a Kd of 6.11 nM.

As a reminder, the Kd is the equilibrium constant for the complex coming apart. A higher Kd goes with a looser complex.
